Measurements reported in publication PMC9279676, “ERK2 MAP kinase regulates SUFU binding by multisite phosphorylation of GLI1” (Life Science Alliance, 2022).
Several values for one entry are separate records, joined by “and”; a condition that tells them apart may be missing. Equal values may be shown once.

T1: GST-SUFU (fusion of GST to full-length human SUFU) (human, UniProt Q9UMX1-1 1-484)
T1 construct: human SUFU, full length (residues 1-484), BamHI-SUFU-SalI cassette in pGEX-LB; pGEX-LB carries a Gly-Gly-Gly-Gly-Gly-Ser-Gly stretch between GST and the fused protein; also called full-length GST-SUFU; source: Escherichia coli, purified (glutathione-Sepharose); not shown: GST, N-terminal, kept
T1 sequence (looked up): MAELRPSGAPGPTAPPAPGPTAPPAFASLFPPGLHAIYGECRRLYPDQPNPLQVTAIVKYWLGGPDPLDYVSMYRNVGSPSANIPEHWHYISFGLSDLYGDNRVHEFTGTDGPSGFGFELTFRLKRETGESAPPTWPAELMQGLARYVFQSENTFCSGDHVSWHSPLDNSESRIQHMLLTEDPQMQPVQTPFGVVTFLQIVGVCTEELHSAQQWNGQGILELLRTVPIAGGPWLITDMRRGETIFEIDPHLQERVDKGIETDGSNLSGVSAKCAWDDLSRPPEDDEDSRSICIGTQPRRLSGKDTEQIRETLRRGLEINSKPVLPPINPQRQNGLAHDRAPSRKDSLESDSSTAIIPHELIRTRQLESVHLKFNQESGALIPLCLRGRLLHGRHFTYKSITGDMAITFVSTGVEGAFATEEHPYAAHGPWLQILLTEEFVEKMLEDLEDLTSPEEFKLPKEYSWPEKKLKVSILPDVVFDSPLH

T2: full-length human SUFU protein, 35S-radiolabeled (human, UniProt Q9UMX1-1 1-484, [35S]-methionine label)
T2 chain: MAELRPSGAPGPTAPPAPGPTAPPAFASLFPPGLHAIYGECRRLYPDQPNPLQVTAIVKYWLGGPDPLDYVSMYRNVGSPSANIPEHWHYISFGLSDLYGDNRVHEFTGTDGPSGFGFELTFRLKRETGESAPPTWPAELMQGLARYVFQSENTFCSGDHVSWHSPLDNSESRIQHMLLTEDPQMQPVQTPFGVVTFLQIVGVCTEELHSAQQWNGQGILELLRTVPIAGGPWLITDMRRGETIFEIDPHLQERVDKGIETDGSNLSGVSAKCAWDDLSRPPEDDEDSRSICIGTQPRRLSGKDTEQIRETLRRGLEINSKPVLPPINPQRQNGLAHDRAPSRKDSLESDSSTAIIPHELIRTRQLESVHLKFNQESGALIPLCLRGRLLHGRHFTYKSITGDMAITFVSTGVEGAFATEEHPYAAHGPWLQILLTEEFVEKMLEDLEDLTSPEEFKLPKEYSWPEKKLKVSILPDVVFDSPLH

T3: full-length human SUFU protein, 35S-radiolabeled (human, UniProt Q9UMX1-1 1-484, [35S]-methionine label)
T3 construct: human SUFU, full length, residues 1-484, from plasmid pGEM4Z-SUFU; also called 35S-SUFU; radiolabeled SUFU; source: in vitro transcription and translation (SP6, Promega), partially purified by ammonium sulfate precipitation
T3 sequence (looked up): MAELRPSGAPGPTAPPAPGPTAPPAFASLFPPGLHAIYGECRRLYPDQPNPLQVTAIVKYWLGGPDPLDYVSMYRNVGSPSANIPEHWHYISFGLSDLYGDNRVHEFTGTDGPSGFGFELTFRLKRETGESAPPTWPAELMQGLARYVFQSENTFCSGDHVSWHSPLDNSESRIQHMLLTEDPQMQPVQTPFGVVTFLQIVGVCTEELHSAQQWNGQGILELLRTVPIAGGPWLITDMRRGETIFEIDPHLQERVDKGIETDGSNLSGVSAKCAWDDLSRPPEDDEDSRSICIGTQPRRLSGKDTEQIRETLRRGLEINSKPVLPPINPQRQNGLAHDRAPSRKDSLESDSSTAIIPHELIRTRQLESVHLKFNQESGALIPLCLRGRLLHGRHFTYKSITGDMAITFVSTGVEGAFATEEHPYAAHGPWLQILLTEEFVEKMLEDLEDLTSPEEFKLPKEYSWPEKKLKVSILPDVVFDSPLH

B1: GLI1_(1-232), wild type, 35S-radiolabeled (domain or fragment, human, UniProt P08151-1 1-232, looked up)
chain: MFNSMTPPPISSYGEPCCLRPLPSQGAPSVGTEGLSGPPFCHQANLMSGPHSYGPARETNSCTEGPLFSSPRSAVKLTKKRALSISPLSDASLDLQTVIRTSPSSLVAFINSRCTSPGGSYGHLSIGTMSPSLGFPAQMNHQKGPSPSFGVQPCGPHDSARGGMIPHPQSRGPFPTCQLKSELDMLVGKCREEPLEGDMSSPNSTGIQDPLLGMLDGREDLEREEKREPESV
modifications: [35S]-methionine label
notes: source: in vitro transcription/translation (T7), partially purified by ammonium sulfate precipitation
B2: GLI1_(1-232) S102E, 35S-radiolabeled (domain or fragment, human, UniProt P08151-1 1-232, looked up)
chain: MFNSMTPPPISSYGEPCCLRPLPSQGAPSVGTEGLSGPPFCHQANLMSGPHSYGPARETNSCTEGPLFSSPRSAVKLTKKRALSISPLSDASLDLQTVIRTEPSSLVAFINSRCTSPGGSYGHLSIGTMSPSLGFPAQMNHQKGPSPSFGVQPCGPHDSARGGMIPHPQSRGPFPTCQLKSELDMLVGKCREEPLEGDMSSPNSTGIQDPLLGMLDGREDLEREEKREPESV
modifications: [35S]-methionine label
notes: as for B1
B3: GLI1_(1-232) S105F (tumor-derived), 35S-radiolabeled (domain or fragment, human, UniProt P08151-1 1-232, looked up)
chain: MFNSMTPPPISSYGEPCCLRPLPSQGAPSVGTEGLSGPPFCHQANLMSGPHSYGPARETNSCTEGPLFSSPRSAVKLTKKRALSISPLSDASLDLQTVIRTSPSFLVAFINSRCTSPGGSYGHLSIGTMSPSLGFPAQMNHQKGPSPSFGVQPCGPHDSARGGMIPHPQSRGPFPTCQLKSELDMLVGKCREEPLEGDMSSPNSTGIQDPLLGMLDGREDLEREEKREPESV
modifications: [35S]-methionine label
notes: source: in vitro transcription/translation, partially purified by ammonium sulfate precipitation
B4: GLI1_(1-232) S102E S130E, 35S-radiolabeled (domain or fragment, human, UniProt P08151-1 1-232, looked up)
chain: MFNSMTPPPISSYGEPCCLRPLPSQGAPSVGTEGLSGPPFCHQANLMSGPHSYGPARETNSCTEGPLFSSPRSAVKLTKKRALSISPLSDASLDLQTVIRTEPSSLVAFINSRCTSPGGSYGHLSIGTMEPSLGFPAQMNHQKGPSPSFGVQPCGPHDSARGGMIPHPQSRGPFPTCQLKSELDMLVGKCREEPLEGDMSSPNSTGIQDPLLGMLDGREDLEREEKREPESV
modifications: [35S]-methionine label
notes: also called S102E S130E double mutant; source: in vitro transcription/translation (T7), partially purified by ammonium sulfate precipitation
B5: GLI1_(1-232) L124P (tumor-derived), 35S-radiolabeled (domain or fragment, human, UniProt P08151-1 1-232, looked up)
chain: MFNSMTPPPISSYGEPCCLRPLPSQGAPSVGTEGLSGPPFCHQANLMSGPHSYGPARETNSCTEGPLFSSPRSAVKLTKKRALSISPLSDASLDLQTVIRTSPSSLVAFINSRCTSPGGSYGHPSIGTMSPSLGFPAQMNHQKGPSPSFGVQPCGPHDSARGGMIPHPQSRGPFPTCQLKSELDMLVGKCREEPLEGDMSSPNSTGIQDPLLGMLDGREDLEREEKREPESV
modifications: [35S]-methionine label
notes: as for B3
B6: GLI1_(1-232) S102E S116E, 35S-radiolabeled (domain or fragment, human, UniProt P08151-1 1-232, looked up)
chain: MFNSMTPPPISSYGEPCCLRPLPSQGAPSVGTEGLSGPPFCHQANLMSGPHSYGPARETNSCTEGPLFSSPRSAVKLTKKRALSISPLSDASLDLQTVIRTEPSSLVAFINSRCTEPGGSYGHLSIGTMSPSLGFPAQMNHQKGPSPSFGVQPCGPHDSARGGMIPHPQSRGPFPTCQLKSELDMLVGKCREEPLEGDMSSPNSTGIQDPLLGMLDGREDLEREEKREPESV
modifications: [35S]-methionine label
notes: also called S102E S116E double mutant; source: in vitro transcription/translation (T7), partially purified by ammonium sulfate precipitation
B7: GLI1_(1-232) S102E S116E S130E, 35S-radiolabeled (domain or fragment, human, UniProt P08151-1 1-232, looked up)
chain: MFNSMTPPPISSYGEPCCLRPLPSQGAPSVGTEGLSGPPFCHQANLMSGPHSYGPARETNSCTEGPLFSSPRSAVKLTKKRALSISPLSDASLDLQTVIRTEPSSLVAFINSRCTEPGGSYGHLSIGTMEPSLGFPAQMNHQKGPSPSFGVQPCGPHDSARGGMIPHPQSRGPFPTCQLKSELDMLVGKCREEPLEGDMSSPNSTGIQDPLLGMLDGREDLEREEKREPESV
modifications: [35S]-methionine label
notes: also called S102E S116E S130E triple mutant; EEE; source: in vitro transcription/translation (T7), partially purified by ammonium sulfate precipitation
B8: GST-GLI1_(68-232), wild type, phosphorylated by ERK2 (domain or fragment, human, UniProt P08151-1 68-232, looked up)
chain: FSSPRSAVKLTKKRALSISPLSDASLDLQTVIRTSPSSLVAFINSRCTSPGGSYGHLSIGTMSPSLGFPAQMNHQKGPSPSFGVQPCGPHDSARGGMIPHPQSRGPFPTCQLKSELDMLVGKCREEPLEGDMSSPNSTGIQDPLLGMLDGREDLEREEKREPESV
modifications: phosphorylated by ERK2 to ∼3 mol phosphate per mole; most efficient sites Ser116 and Ser130, followed by Ser102 and Ser201
notes: vector pGEX-LB; also called ERK2-phosphorylated GLI1; WT + ERK2; source: bacteria, purified (glutathione-Sepharose); then phosphorylated with purified active ERK2 (2 h, 30°C)
B9: GST-GLI1^S116 (GST-GLI1_(68-232), only S116 intact), mock treated (domain or fragment, human, UniProt P08151-1 68-232, looked up)
chain: FSAPRSAVKLTKKRALSIAPLSDASLDLQTVIRTAPSSLVAFINSRCTSPGGSYGHLSIGTMAPSLGFPAQMNHQKGPAPSFGVQPCGPHDSARGGMIPHPQSRGPFPTCQLKSELDMLVGKCREEPLEGDMSAPNSTGIQDPLLGMLDGREDLEREEKREPESV
notes: only the SP site S116 intact; also called S116 one site only; source: bacteria, purified (glutathione-Sepharose); mock treated (no ERK2)
B10: GST-GLI1^S102 (GST-GLI1_(68-232), only S102 intact), mock treated (domain or fragment, human, UniProt P08151-1 68-232, looked up)
chain: FSAPRSAVKLTKKRALSIAPLSDASLDLQTVIRTSPSSLVAFINSRCTAPGGSYGHLSIGTMAPSLGFPAQMNHQKGPAPSFGVQPCGPHDSARGGMIPHPQSRGPFPTCQLKSELDMLVGKCREEPLEGDMSAPNSTGIQDPLLGMLDGREDLEREEKREPESV
notes: only the SP site S102 intact; also called S102 one site only; source: bacteria, purified (glutathione-Sepharose); mock treated (no ERK2)

Target: T1, GST-SUFU (fusion of GST to full-length …)
Assay: pull-down; purified GST-SUFU, 1.25-80 nM, captured on glutathione-Sepharose beads; ∼1 pmol 35S-GLI1 (1-232 or full length) in 200 μl; 15 min at 30°C, then 1 h at room temperature; Binding Buffer + 1 mg/ml BSA; bound GLI1 quantified by SDS-PAGE and Phosphorimager; Kd from binding isotherms
Settings: one partner purified

**Q.** B1 was tested. Which Kd did it give?
**A.** 8 nM and 14 nM

**Q.** Which “fold reduction in affinity against wild-type GLI1_(1-232)” value (shortened to “fold reduction in affinity”) does the source give for B2 here?
**A.** ~8 fold

**Q.** Which Kd does the source give for B3 here?
**A.** 181 ± 30 nM

**Q.** B4 was tested. Which “fold reduction in affinity” value did it give?
**A.** 38 fold

**Q.** With B5 as the binder, how does the Kd read?
**A.** 3800 nM

**Q.** For B6, which “fold reduction in affinity” value is on record?
**A.** 12 fold

**Q.** Which “fold reduction in affinity” value does the source give for B7 here?
**A.** 65 fold

Target: T2, full-length human SUFU protein, …
Assay: GLI1 phosphorylated by ERK2
Settings: not given

**Q.** B8 was tested. Which Kd did it give?
**A.** 118 nM

Target: T3, full-length human SUFU protein, …
Assay: pull-down; purified GST-GLI1_(68-232) variants (mock treated or ERK2 phosphorylated), 0 or 1.25-80 nM, on glutathione-Sepharose beads; ∼1 pmol 35S-SUFU in 200 μl; 15 min at 30°C, then 1 h at room temperature; Binding Buffer (20 mM Tris-HCl pH 7.5, 125 mM KOAc, 0.5 mM EDTA, 5 mM DTT, 0.1% Tween20, 12.5% glycerol) + 1 mg/ml BSA; bound SUFU quantified by SDS-PAGE and Phosphorimager; Kd from binding isotherms
Settings: one partner purified

**Q.** For B8, which Kd is on record?
**A.** 93 nM

**Q.** How did the Kd turn out when B9 was run?
**A.** 14 nM

**Q.** With B10 as the binder, how does the Kd read?
**A.** ~3 nM
